Results reported in the RNAGym collection of RNA variant scans (doi:10.7554/elife.80360).

B1: Hammerhead Ribozyme (parent)
chain: ACCGGAUGUGCUUUCCGGUCUGAUGAGUCCGUGAGGACGAAACAG

Variants of: B1
Test: self-cleavage, relative activity (ratio to wild type); higher = more cleavage; co-transcriptional

| Variant | self-cleavage |
| --- | --- |
| ACUGGAUGUGCUUUCCGCUCUGAUGAGUCCGUGAGGACGAAACAG | 0.472 |
| ACUGGAUGUGCUUUCCGUUCUGAUGAGUCCGUGAGGACGAAACAG | 0.453 |
| ACUGGAUGUGCUUUCCGGUCUGCUGAGUCCGUGAGGACGAAACAG | 0.491 |
| ACUGGAUGUGCUUUCCGGUCUGUUGAGUCCGUGAGGACGAAACAG | 0.347 |
| ACUGGAUGUGCUUUCCGGUCUGGUGAGUCCGUGAGGACGAAACAG | 0.331 |
| ACUGGAUAUGCUUUCCGGUCUGAUGAGUCCGUGAGGACGAAACAG | 1.25 |
| ACUGGAUUUGCUUUCCGGUCUGAUGAGUCCGUGAGGACGAAACAG | 0.945 |
| ACUGGAUCUGCUUUCCGGUCUGAUGAGUCCGUGAGGACGAAACAG | 0.936 |
| ACUGAAUGUGCUUUCCGGUCUGAUGAGUCCGUGAGGACGAAACAG | 0.491 |
| ACUGCAUGUGCUUUCCGGUCUGAUGAGUCCGUGAGGACGAAACAG | 0.351 |
| ACUGUAUGUGCUUUCCGGUCUGAUGAGUCCGUGAGGACGAAACAG | 1.4 |
| ACUGGAUGUGCUUUCCGGUCUGAUGAGUCCGUGAGGACGGAACAG | 0.34 |
| ACUGGAUGUGCUUUCCGGUCUGAUGAGUCCGUGAGGACGCAACAG | 0.469 |
| ACUGGAUGUGCUUUCCGGUCUGAUGAGUCCGUGAGGACGUAACAG | 0.36 |
| ACUGGAUGUGCUUUCCGGUCUGAUGAGUCCGUGAGGACUAAACAG | 0.343 |
| ACUGGAUGUGCUUUCCGGUCUGAUGAGUCCGUGAGGACCAAACAG | 0.462 |
| ACUGGAUGUGCUUUCCGGUCUGAUGAGUCCGUGAGGACAAAACAG | 0.309 |
| ACUGGAUGUGCUUUCCGGUCUGAUGAGUGCGUGAGGACGAAACAG | 0.594 |
| ACUGGAUGUGCUUUCCGGUCUGAUGAGUUCGUGAGGACGAAACAG | 0.926 |

| Variant | self-cleavage |
| --- | --- |
| ACUGGAUGUGCUUUCCGGUCUGAUGAGUACGUGAGGACGAAACAG | 0.593 |
| ACUGGAUGUGCUUUCCGGUCUGAUGAGUCCGUGAGGACGAAAGAG | 0.385 |
| ACUGGAUGUGCUUUCCGGUCUGAUGAGUCCGUGAGGACGAAAAAG | 0.344 |
| ACUGGAUGUGCUUUCCGGUCUGAUGAGUCCGUGAGGACGAAAUAG | 0.492 |
| ACGGGAUGUGCUUUCCGGUCUGAUGAGUCCGGGAGGACGAAACAG | 0.36 |
| ACGGGAUGUGCUUUCCGGUCUGAUGAGUCCGAGAGGACGAAACAG | 0.639 |
| ACGGGAUGUGCUUUCCGGUCUGAUGAGUCCGCGAGGACGAAACAG | 0.433 |
| ACUGGAUGUGAUUUCCGGUCUGAUGAGUCCGUGAGGACGAAACAG | 1.16 |
| ACUGGAUGUGUUUUCCGGUCUGAUGAGUCCGUGAGGACGAAACAG | 0.504 |
| ACUGGAUGUGGUUUCCGGUCUGAUGAGUCCGUGAGGACGAAACAG | 1.25 |
| ACUGGAUGUGCUUUCCGGUCUGAUGAGUCCGUGAGGACGAAACAG | 1.03 |
| ACUGGAUGUGCUUUCCGGUCUGAUGAGUCCGUGAGGACGAACCAG | 0.406 |
| ACUGGAUGUGCUUUCCGGUCUGAUGAGUCCGUGAGGACGAAGCAG | 0.393 |
| ACUGGAUGUGCUUUCCGGUCUGAUGAGUCCGUGAGGACGAAUCAG | 0.38 |
| ACUGGAUGUGCUUUCCGGUCUGAUGAGUCCGUGAGGAGGAAACAG | 0.745 |
| ACUGGAUGUGCUUUCCGGUCUGAUGAGUCCGUGAGGAUGAAACAG | 0.999 |
| ACUGGAUGUGCUUUCCGGUCUGAUGAGUCCGUGAGGAAGAAACAG | 0.577 |
| ACUGGAUGUGCUUUCCGGUCUGAUGAGUCCGUGAGUACGAAACAG | 0.491 |
| ACUGGAUGUGCUUUCCGGUCUGAUGAGUCCGUGAGCACGAAACAG | 0.424 |

| Variant | self-cleavage |
| --- | --- |
| ACUGGAUGUGCUUUCCGGUCUGAUGAGUCCGUGAGAACGAAACAG | 0.617 |
| ACUGGAUGUGCUUUCCGGUUUGAUGAGUCCGUGAGGACGAAACAG | 0.523 |
| ACUGGAUGUGCUUUCCGGUGUGAUGAGUCCGUGAGGACGAAACAG | 0.306 |
| ACUGGAUGUGCUUUCCGGUAUGAUGAGUCCGUGAGGACGAAACAG | 0.465 |
| ACUGGAUGUGCUUUCCGGUCUGAUGACUCCGUGAGGACGAAACAG | 0.599 |
| ACUGGAUGUGCUUUCCGGUCUGAUGAUUCCGUGAGGACGAAACAG | 0.554 |
| ACUGGAUGUGCUUUCCGGUCUGAUGAAUCCGUGAGGACGAAACAG | 0.93 |
| ACUGGAUGUGCUUUCCGGUCUGAUGAGUCCAUGAGGACGAAACAG | 1.06 |
| ACUGGAUGUGCUUUCCGGUCUGAUGAGUCCUUGAGGACGAAACAG | 1.17 |
| ACUGGAUGUGCUUUCCGGUCUGAUGAGUCCCUGAGGACGAAACAG | 0.974 |
| ACUGGAUGUGCUUUCCCGUCUGAUGAGUCCGUGAGGACGAAACAG | 0.675 |
| ACUGGAUGUGCUUUCCAGUCUGAUGAGUCCGUGAGGACGAAACAG | 1.03 |
| ACUGGAUGUGCUUUCCUGUCUGAUGAGUCCGUGAGGACGAAACAG | 0.866 |
| ACUGGAUGUGCUUUCCGGUCUGAUGAGUCUGUGAGGACGAAACAG | 0.929 |
| ACUGGAUGUGCUUUCCGGUCUGAUGAGUCGGUGAGGACGAAACAG | 0.727 |
| ACUGGAUGUGCUUUCCGGUCUGAUGAGUCAGUGAGGACGAAACAG | 1.05 |
| ACUGGAUGUGCUUUCCGGUCUGAUGAGUCCGUGAGGACGACACAG | 0.404 |
| ACUGGAUGUGCUUUCCGGUCUGAUGAGUCCGUGAGGACGAGACAG | 0.354 |
| ACUGGAUGUGCUUUCCGGUCUGAUGAGUCCGUGAGGACGAUACAG | 0.378 |
